Results: PMC3409459, “Absorption, distribution, metabolism and excretion of peginesatide, a novel erythropoiesis-stimulating agent, in rats” (Xenobiotica; the Fate of Foreign Compounds in Biological …, 2011)

Test: Tissue distribution of radioactivity by LSC following combustion, albino rats
Format: in vivo, male Sprague-Dawley (albino) rats
Details: mean ± SD, n=3
Protocol: Total captured radioactivity was subsequently measured via LSC.
Male Sprague-Dawley (albino) rats (n = 21; three per time point) were administered a single IV dose of 5 mg·kg^−1 [^14C]-peginesatide (27.5 μCi/kg) and tissue concentrations of radioactivity determined at 0.25, 6, and 24 h, and 7,14,30 and 60 days following dosing. Similarly, male Long Evans (pigmented) rats (n = 21; three per time point) were administered a single IV dose of 5 mg-kg^−1 [^14C]-peginesatide and plasma, skin, and eye concentrations of radioactivity were measured at the various time points through 60 days after dosing. At each time point, blood was collected, the animals sacrificed, and tissues excised. Tissues collected from the Sprague-Dawley rats included blood, plasma, adrenals, bone marrow, brain, eyes, fat, femur, Harderian glands, heart, hypophysis, intestine, kidneys, lungs, liver, pancreas, skeletal muscle, skin, spinal cord, spleen, stomach, submaxillary glands, testes, thymus, thyroid gland, and urinary bladder. Plasma, eyes, non-pigmented skin, and pigmented skin were collected from Long Evans rats. All tissue samples were measured for radioactivity by LSC following combustion. The liver and intestine were first homogenized in distilled water (20% w/v) prior to analysis. The concentration of radioactivity in the blood, plasma, and tissues was calculated and expressed as ug equiv·g^-1 or mLbased on the LSC counts and the specific activity of the dosing solution.

[1] = 7 Days after single IV 5 mg·kg^−1, LSC
[2] = 14 Days after single IV 5 mg·kg^−1, LSC
[3] = 30 Days after single IV 5 mg·kg^−1, LSC
[4] = 60 Days after single IV 5 mg·kg^−1, LSC

## Peginesatide
[1]
  Concentration of the radioactivity, Adrenals: 10.2 ± 1.31 μg equiv·g^−1 or mL
  Concentration of the radioactivity, Blood: 3.87 ± 0.291 μg equiv·g^−1 or mL
  Concentration of the radioactivity, Bone (femur): 0.788 ± 0.374 μg equiv·g^−1 or mL
  Concentration of the radioactivity, Bone marrow: 8.87 ± 0.641 μg equiv·g^−1 or mL
  Concentration of the radioactivity, Brain: 0.200 ± 0.021 μg equiv·g^−1 or mL
  Concentration of the radioactivity, Eyes: 0.885 ± 0.111 μg equiv·g^−1 or mL
  Concentration of the radioactivity, Fat: 2.11 ± 0.693 μg equiv·g^−1 or mL
  Concentration of the radioactivity, Harderian glands: 4.41 ± 0.100 μg equiv·g^−1 or mL
  Concentration of the radioactivity, Heart: 4.01 ± 0.344 μg equiv·g^−1 or mL
  Concentration of the radioactivity, Intestine: 3.05 ± 0.259 μg equiv·g^−1 or mL
  Concentration of the radioactivity, Kidneys: 5.68 ± 0.386 μg equiv·g^−1 or mL
  Concentration of the radioactivity, Liver: 12.5 ± 0.727 μg equiv·g^−1 or mL
  Concentration of the radioactivity, Lungs: 4.26 ± 0.285 μg equiv·g^−1 or mL
  Concentration of the radioactivity, Pancreas: 9.74 ± 0.231 μg equiv·g^−1 or mL
  Concentration of the radioactivity, Pituitary: 8.31 ± 0.594 μg equiv·g^−1 or mL
  Concentration of the radioactivity, Plasma: 7.80 ± 0.541 μg equiv·g^−1 or mL
  Concentration of the radioactivity, Skeletal muscle: 0.563 ± 0.119 μg equiv·g^−1 or mL
  Concentration of the radioactivity, Skin: 3.06 ± 0.055 μg equiv·g^−1 or mL
  Concentration of the radioactivity, Spinal cord: 0.129 ± 0.067 μg equiv·g^−1 or mL
  Concentration of the radioactivity, Spleen: 11.5 ± 0.204 μg equiv·g^−1 or mL
  Concentration of the radioactivity, Stomach: 2.36 ± 0.262 μg equiv·g^−1 or mL
  Concentration of the radioactivity, Submandibular lymph nodes: 10.6 ± 0.553 μg equiv·g^−1 or mL
  Concentration of the radioactivity, Testes: 4.98 ± 0.222 μg equiv·g^−1 or mL
  Concentration of the radioactivity, Thymus: 3.39 ± 0.560 μg equiv·g^−1 or mL
  Concentration of the radioactivity, Thyroid gland: 17.0 ± 5.26 μg equiv·g^−1 or mL
  Concentration of the radioactivity, Urinary bladder: 4.52 ± 1.01 μg equiv·g^−1 or mL
[2]
  Concentration of the radioactivity, Adrenals: 9.15 ± 2.39 μg equiv·g^−1 or mL
  Concentration of the radioactivity, Blood: 1.03 ± 0.229 μg equiv·g^−1 or mL
  Concentration of the radioactivity, Bone (femur): 0.388 ± 0.054 μg equiv·g^−1 or mL
  Concentration of the radioactivity, Bone marrow: 6.33 ± 0.683 μg equiv·g^−1 or mL
  Concentration of the radioactivity, Brain: 0.102 ± 0.014 μg equiv·g^−1 or mL
  Concentration of the radioactivity, Eyes: 0.765 ± 0.022 μg equiv·g^−1 or mL
  Concentration of the radioactivity, Fat: 1.14 ± 0.475 μg equiv·g^−1 or mL
  Concentration of the radioactivity, Harderian glands: 5.21 ± 0.433 μg equiv·g^−1 or mL
  Concentration of the radioactivity, Heart: 2.73 ± 0.254 μg equiv·g^−1 or mL
  Concentration of the radioactivity, Intestine: 1.78 ± 0.297 μg equiv·g^−1 or mL
  Concentration of the radioactivity, Kidneys: 4.49 ± 1.02 μg equiv·g^−1 or mL
  Concentration of the radioactivity, Liver: 8.53 ± 0.754 μg equiv·g^−1 or mL
  Concentration of the radioactivity, Lungs: 3.38 ± 0.703 μg equiv·g^−1 or mL
  Concentration of the radioactivity, Pancreas: 9.10 ± 0.629 μg equiv·g^−1 or mL
  Concentration of the radioactivity, Pituitary: 6.25 ± 1.17 μg equiv·g^−1 or mL
  Concentration of the radioactivity, Plasma: 2.00 ± 0.605 μg equiv·g^−1 or mL
  Concentration of the radioactivity, Skeletal muscle: 0.379 ± 0.108 μg equiv·g^−1 or mL
  Concentration of the radioactivity, Skin: 1.70 ± 0.109 μg equiv·g^−1 or mL
  Concentration of the radioactivity, Spinal cord: 0.069 ± 0.030 μg equiv·g^−1 or mL
  Concentration of the radioactivity, Spleen: 23.6 ± 2.82 μg equiv·g^−1 or mL
  Concentration of the radioactivity, Stomach: 2.00 ± 0.118 μg equiv·g^−1 or mL
  Concentration of the radioactivity, Submandibular lymph nodes: 10.9 ± 1.32 μg equiv·g^−1 or mL
  Concentration of the radioactivity, Testes: 5.19 ± 0.448 μg equiv·g^−1 or mL
  Concentration of the radioactivity, Thymus: 1.81 ± 0.249 μg equiv·g^−1 or mL
  Concentration of the radioactivity, Thyroid gland: 13.2 ± 3.52 μg equiv·g^−1 or mL
  Concentration of the radioactivity, Urinary bladder: 2.30 ± 0.326 μg equiv·g^−1 or mL
[3]
  Concentration of the radioactivity, Adrenals: 7.90 ± 1.57 μg equiv·g^−1 or mL
  Concentration of the radioactivity, Blood: 0.466 ± 0.054 μg equiv·g^−1 or mL
  Concentration of the radioactivity, Bone (femur): 0.278 ± 0.057 μg equiv·g^−1 or mL
  Concentration of the radioactivity, Bone marrow: 4.12 ± 1.37 μg equiv·g^−1 or mL
  Concentration of the radioactivity, Brain: 0.080 ± 0.010 μg equiv·g^−1 or mL
  Concentration of the radioactivity, Eyes: 0.511 ± 0.147 μg equiv·g^−1 or mL
  Concentration of the radioactivity, Fat: 0.582 ± 0.070 μg equiv·g^−1 or mL
  Concentration of the radioactivity, Harderian glands: 3.88 ± 0.907 μg equiv·g^−1 or mL
  Concentration of the radioactivity, Heart: 1.57 ± 0.244 μg equiv·g^−1 or mL
  Concentration of the radioactivity, Intestine: 1.40 ± 0.183 μg equiv·g^−1 or mL
  Concentration of the radioactivity, Kidneys: 3.03 ± 0.429 μg equiv·g^−1 or mL
  Concentration of the radioactivity, Liver: 3.45 ± 0.808 μg equiv·g^−1 or mL
  Concentration of the radioactivity, Lungs: 1.78 ± 0.237 μg equiv·g^−1 or mL
  Concentration of the radioactivity, Pancreas: 6.67 ± 1.70 μg equiv·g^−1 or mL
  Concentration of the radioactivity, Pituitary: 7.24 ± 0.292 μg equiv·g^−1 or mL
  Concentration of the radioactivity, Plasma: 0.780 ± 0.099 μg equiv·g^−1 or mL
  Concentration of the radioactivity, Skeletal muscle: 0.152 ± 0.012 μg equiv·g^−1 or mL
  Concentration of the radioactivity, Skin: 0.889 ± 0.228 μg equiv·g^−1 or mL
  Concentration of the radioactivity, Spinal cord: 0.033 ± 0.016 μg equiv·g^−1 or mL
  Concentration of the radioactivity, Spleen: 17.7 ± 4.96 μg equiv·g^−1 or mL
  Concentration of the radioactivity, Stomach: 1.28 ± 0.106 μg equiv·g^−1 or mL
  Concentration of the radioactivity, Submandibular lymph nodes: 7.86 ± 1.19 μg equiv·g^−1 or mL
  Concentration of the radioactivity, Testes: 4.33 ± 1.00 μg equiv·g^−1 or mL
  Concentration of the radioactivity, Thymus: 1.14 ± 0.138 μg equiv·g^−1 or mL
  Concentration of the radioactivity, Thyroid gland: 13.9 ± 3.33 μg equiv·g^−1 or mL
  Concentration of the radioactivity, Urinary bladder: 1.77 ± 0.889 μg equiv·g^−1 or mL
[4]
  Concentration of the radioactivity, Adrenals: 5.32 ± 0.996 μg equiv·g^−1 or mL
  Concentration of the radioactivity, Blood: 0.170 ± 0.036 μg equiv·g^−1 or mL
  Concentration of the radioactivity, Bone (femur): 0.046 ± 0.001 μg equiv·g^−1 or mL
  Concentration of the radioactivity, Bone marrow: 0.361 ± 0.142 μg equiv·g^−1 or mL
  Concentration of the radioactivity, Brain: 0.057 ± 0.006 μg equiv·g^−1 or mL
  Concentration of the radioactivity, Eyes: 0.299 ± 0.076 μg equiv·g^−1 or mL
  Concentration of the radioactivity, Fat: 0.456 ± 0.135 μg equiv·g^−1 or mL
  Concentration of the radioactivity, Harderian glands: 2.75 ± 0.281 μg equiv·g^−1 or mL
  Concentration of the radioactivity, Heart: 1.14 ± 0.205 μg equiv·g^−1 or mL
  Concentration of the radioactivity, Intestine: 0.624 ± 0.033 μg equiv·g^−1 or mL
  Concentration of the radioactivity, Kidneys: 2.11 ± 0.574 μg equiv·g^−1 or mL
  Concentration of the radioactivity, Liver: 1.17 ± 0.199 μg equiv·g^−1 or mL
  Concentration of the radioactivity, Lungs: 1.05 ± 0.238 μg equiv·g^−1 or mL
  Concentration of the radioactivity, Pancreas: 5.92 ± 0.436 μg equiv·g^−1 or mL
